Assay [1] has as its target HLA-DR1 (HLA-DRα*0101 and HLA-DRβ1*0101). Put plainly: in vitro competition assay (HLA-DR1 peptide binding). The following applies: chain shown with the change.
The target of assay [2] is HLA-DR1 (HLA-DRα*0101 and HLA-DRβ1*0101) (human). Put plainly: ELISA; competitive peptide-binding assay: test peptide 10^-4-10^-10 M against 4.5 nM biotinylated CLIP 99-117 marker peptide for 0.1 μg refolded HLA-DR1-CLIP 105-117; 20 mM MES, 140 mM NaCl, 0.02% NaN3, pH 5, overnight at 37 °C; HLA-DR1 captured on anti-DR L243, bound marker detected with streptavidin-HRP; % competitive inhibition, four-parameter fit. A general note: ELISA stands for enzyme-linked immunosorbent assay.

Regarding FARRPPLAELAALALSGSRL [5T4_(111–130) 20-mer peptide N8A], the IC50 – broadly, the point on the concentration scale where inhibition reaches its midpoint – in assay [1] came to 144 nM.
Same read-out and setting: the result for FARRPPLAELAALNLSRSRL [5T4_(111–130) 20-mer peptide G11R] reads 255 nM; that for FARRPPLAELAAANLSGSRL [5T4_(111–130) 20-mer peptide L7A], 725 nM.
For FARRPPLAELAALNLSGSRL [5T4_(111–130) 20-mer peptide], in assay [2], the 50% inhibitory concentration (IC50) was found to be 176 nM.
